The values that follow come from patent US7345026 (INSTITUT PASTEUR, dated 2008).

B1: Tyrosinase 368-376-D epitopic peptide (peptide)
peptide: YMDGTMSQV
notes: synthetic peptide; also called Tyrosinase.368-D

This test concerns the target T1, HLA-A2.1 molecules on T2 (TAP-, HLA-A2.1+) cells (human).
T1 construct: MHC class I molecule to which peptides were added from outside; Surface HLA-A2.1 was detected with mAb BB7.2; also called H.A.-A2.1
As to the kind of experiment: T2 cells, peptide binding by surface HLA-A2.1 (BB7.2) flow cytometry; ratio of concentrations reaching 20% of maximal binding. In general terms: Flow cytometry measures light scatter and fluorescence of single cells or particles in a stream.
ILTVILGVL (synthetic peptide) [Melan-A/MART-1 32-40 epitopic peptide]: the “RA (relative affinity)” value is 21.1 ratio to HIV 1 rt.476 reference peptide.
Turning to VLYRYGSFSV (synthetic peptide) [gp100 476-485 epitopic peptide], the “RA (relative affinity)” value is 10 ratio to HIV 1 rt.476 reference peptide.
On to MLLAVLYCL (synthetic peptide) [Tyrosinase 1-9 epitopic peptide], for which the “RA (relative affinity)” value was > 60 ratio to HIV 1 rt.476 reference peptide.
For B1 the value was 2.27 ratio to HIV 1 rt.476 reference peptide; for LLDGTATLRL (synthetic peptide) [gp100 457-466 epitopic peptide], 1.65 ratio to HIV 1 rt.476 reference peptide.
